Assay results taken from US20200087363A1 (IMMATICS BIOTECHNOLOGIES, published 2020).
One block for each binder: values may come before it.

Molecular target: T1, HLA-B*44:05 (human)
T1 construct: also called peptide-receptive MHC class I molecule
Assay: UV peptide exchange, anti-b2m ELISA
Outline: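 Peptide-receptive HLA-B*44:05 monomers after UV-induced exchange were diluted 100-fold and captured on streptavidin-coated plates for 1 h at 37 °C. Bound complexes were detected with 2 µg/ml HRP-anti-β2m (1 h, 37 °C) and TMB, read at 450 nm. β2m signal reflects peptide-stabilized complex yield.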

B1: IETSSEYFNF (peptide)
peptide: IETSSEYFNF
peptide exchange yield: 50 to 75%

B2: EDASLMGLY (peptide)
peptide: EDASLMGLY
peptide exchange yield: 20 to 50%

B3: AERDLNVTI (peptide)
peptide: AERDLNVTI
peptide exchange yield: 50 to 75%

B4: KELEERMLHW (peptide)
peptide: KELEERMLHW
peptide exchange yield: > 75%

B7: AEDARGWTA (peptide)
peptide: AEDARGWTA
peptide exchange yield: 20 to 50%

B8: GEPRKLLTQDW (peptide)
peptide: GEPRKLLTQDW
peptide exchange yield: 50 to 75%

B9: AEIIRYIF (peptide)
peptide: AEIIRYIF
peptide exchange yield: 10 to 20%

B13: EESFDSKFY (peptide)
peptide: EESFDSKFY
peptide exchange yield: 50 to 75%

B15: HEATFGEKRF (peptide)
peptide: HEATFGEKRF
peptide exchange yield: 50 to 75%

B16: EESFRCLPEW (peptide)
peptide: EESFRCLPEW
peptide exchange yield: > 75%

B17: EECGKAFRVF (peptide)
peptide: EECGKAFRVF
peptide exchange yield: 50 to 75%

B18: EECGKAFSVF (peptide)
peptide: EECGKAFSVF
peptide exchange yield: 50 to 75%

B21: DELMRKESQW (peptide)
peptide: DELMRKESQW
peptide exchange yield: 50 to 75%

B23: DEMENLLTY (peptide)
peptide: DEMENLLTY
peptide exchange yield: > 75%

B25: AEALGAAKKL (peptide)
peptide: AEALGAAKKL
peptide exchange yield: 20 to 50%

B28: GETVVLKNM (peptide)
peptide: GETVVLKNM
peptide exchange yield: 50 to 75%

B29: AEGYLDLDGI (peptide)
peptide: AEGYLDLDGI
peptide exchange yield: 20 to 50%

B33: GEYNKHAQLW (peptide)
peptide: GEYNKHAQLW
peptide exchange yield: > 75%

B34: EEHVYESIIRW (peptide)
peptide: EEHVYESIIRW
peptide exchange yield: 50 to 75%

B35: EEYKFPSLF (peptide)
peptide: EEYKFPSLF
peptide exchange yield: 50 to 75%

B36: AENRVGKMEA (peptide)
peptide: AENRVGKMEA
peptide exchange yield: 20 to 50%

B39: AEREQVIKL (peptide)
peptide: AEREQVIKL
peptide exchange yield: > 75%

B40: EECDKAFHF (peptide)
peptide: EECDKAFHF
peptide exchange yield: 50 to 75%

B42: EEAQWVRKYF (peptide)
peptide: EEAQWVRKYF
peptide exchange yield: 50 to 75%

B43: EEAGFPLAY (peptide)
peptide: EEAGFPLAY
peptide exchange yield: 50 to 75%

B48: GEVQENYKL (peptide)
peptide: GEVQENYKL
peptide exchange yield: 50 to 75%

B52: KEAINLLKNY (peptide)
peptide: KEAINLLKNY
peptide exchange yield: 50 to 75%

B55: EESDYITHY (peptide)
peptide: EESDYITHY
peptide exchange yield: 50 to 75%

B57: IEQADWPEI (peptide)
peptide: IEQADWPEI
peptide exchange yield: 20 to 50%

B58: DEVRFFKGNKY (peptide)
peptide: DEVRFFKGNKY
peptide exchange yield: 20 to 50%

B60: EECGKAFKKF (peptide)
peptide: EECGKAFKKF
peptide exchange yield: 50 to 75%

B62: EECDKAYSF (peptide)
peptide: EECDKAYSF
peptide exchange yield: 20 to 50%

B63: EEMERDLDMY (peptide)
peptide: EEMERDLDMY
peptide exchange yield: 50 to 75%

B64: KEKVPGITI (peptide)
peptide: KEKVPGITI
peptide exchange yield: 50 to 75%

B65: DEQRRQNVAY (peptide)
peptide: DEQRRQNVAY
peptide exchange yield: 20 to 50%

B66: AEAMGKFKQCF (peptide)
peptide: AEAMGKFKQCF
peptide exchange yield: 50 to 75%

B68: EEVLLANALW (peptide)
peptide: EEVLLANALW
peptide exchange yield: 50 to 75%

B69: EENTGKTYF (peptide)
peptide: EENTGKTYF
peptide exchange yield: 50 to 75%

B71: AEDFVWAQW (peptide)
peptide: AEDFVWAQW
peptide exchange yield: > 75%

The next lines start with the values.

peptide exchange yield: 50 to 75%
B5: NEFRRKLTF (peptide)
peptide: NEFRRKLTF

peptide exchange yield: 50 to 75%
B6: SELSLLSLY (peptide)
peptide: SELSLLSLY

peptide exchange yield: 50 to 75%
B10: TEFHGGLHY (peptide)
peptide: TEFHGGLHY

peptide exchange yield: 20 to 50%
B11: REDPIVYEI (peptide)
peptide: REDPIVYEI

peptide exchange yield: 50 to 75%
B12: SESDGIEQL (peptide)
peptide: SESDGIEQL

peptide exchange yield: 50 to 75%
B14: TEFAVKLKI (peptide)
peptide: TEFAVKLKI

peptide exchange yield: 50 to 75%
B19: QEAKPRATW (peptide)
peptide: QEAKPRATW

peptide exchange yield: 50 to 75%
B20: SEENTGKTYF (peptide)
peptide: SEENTGKTYF

peptide exchange yield: 50 to 75%
B22: LDGIPTAGW (peptide)
peptide: LDGIPTAGW

peptide exchange yield: 50 to 75%
B24: TEDYSKQAL (peptide)
peptide: TEDYSKQAL

peptide exchange yield: 50 to 75%
B26: MEVDPIGHVY (peptide)
peptide: MEVDPIGHVY

peptide exchange yield: 50 to 75%
B27: SELNPLALY (peptide)
peptide: SELNPLALY

peptide exchange yield: > 75%
B30: NEIGQELTGQEW (peptide)
peptide: NEIGQELTGQEW

peptide exchange yield: 50 to 75%
B31: VEIVTIPSL (peptide)
peptide: VEIVTIPSL

peptide exchange yield: 50 to 75%
B32: SETILAVGL (peptide)
peptide: SETILAVGL

peptide exchange yield: 50 to 75%
B37: QELFLQEVRM (peptide)
peptide: QELFLQEVRM

peptide exchange yield: 50 to 75%
B38: SEFGAPRW (peptide)
peptide: SEFGAPRW

peptide exchange yield: > 75%
B41: LEHPFLVNLW (peptide)
peptide: LEHPFLVNLW

peptide exchange yield: 50 to 75%
B44: NEAEWQEIL (peptide)
peptide: NEAEWQEIL

peptide exchange yield: 50 to 75%
B45: REVDPDDSYVF (peptide)
peptide: REVDPDDSYVF

peptide exchange yield: 50 to 75%
B46: SEILRVTLY (peptide)
peptide: SEILRVTLY

peptide exchange yield: > 75%
B47: TELGLFGVW (peptide)
peptide: TELGLFGVW

peptide exchange yield: 50 to 75%
B49: RELEEEFYSL (peptide)
peptide: RELEEEFYSL

peptide exchange yield: 50 to 75%
B50: TEVSVLLLTF (peptide)
peptide: TEVSVLLLTF

peptide exchange yield: > 75%
B51: QELMAFSFAGL (peptide)
peptide: QELMAFSFAGL

peptide exchange yield: 50 to 75%
B53: TESIGAQIY (peptide)
peptide: TESIGAQIY

peptide exchange yield: 50 to 75%
B54: MEFQNTQSY (peptide)
peptide: MEFQNTQSY

peptide exchange yield: > 75%
B56: YEHAFNSIVW (peptide)
peptide: YEHAFNSIVW

peptide exchange yield: 20 to 50%
B59: MELLFLDTF (peptide)
peptide: MELLFLDTF

peptide exchange yield: 50 to 75%
B61: SEVEYINKY (peptide)
peptide: SEVEYINKY

peptide exchange yield: > 75%
B67: NESGKAFNY (peptide)
peptide: NESGKAFNY

peptide exchange yield: 50 to 75%
B70: TELEPGLTY (peptide)
peptide: TELEPGLTY

peptide exchange yield: 20 to 50%
B72: VENIFHNF (peptide)
peptide: VENIFHNF

peptide exchange yield: > 75%
B73: QESVHVASY (peptide)
peptide: QESVHVASY
